Assay results from paper PMC8307404, “Crystal Structure-Guided Design of Bisubstrate Inhibitors and Photoluminescent Probes for Protein Kinases of the PIM Family” (Molecules, 2021).
Square brackets hold non-standard residues; d marks the D form. Peptide text beside a SMILES is read from it. * marks the point of attachment. X3 = O=C(CCCCCNCc1nc2c(sc3cc(Br)cnc32)c(=O)[nH]1)*

Legend:
Assay in all cases: Kinase profiling (radiometric filter-binding)
Format in all cases: biochemical
[1] = molecular target: HIPK3 (Homo sapiens, UniProt Q9H422); conditions: HIPK3, 1 µM inhibitor; read-out: Residual activity, %
Sequence of HIPK3 (Q9H422 whole entry): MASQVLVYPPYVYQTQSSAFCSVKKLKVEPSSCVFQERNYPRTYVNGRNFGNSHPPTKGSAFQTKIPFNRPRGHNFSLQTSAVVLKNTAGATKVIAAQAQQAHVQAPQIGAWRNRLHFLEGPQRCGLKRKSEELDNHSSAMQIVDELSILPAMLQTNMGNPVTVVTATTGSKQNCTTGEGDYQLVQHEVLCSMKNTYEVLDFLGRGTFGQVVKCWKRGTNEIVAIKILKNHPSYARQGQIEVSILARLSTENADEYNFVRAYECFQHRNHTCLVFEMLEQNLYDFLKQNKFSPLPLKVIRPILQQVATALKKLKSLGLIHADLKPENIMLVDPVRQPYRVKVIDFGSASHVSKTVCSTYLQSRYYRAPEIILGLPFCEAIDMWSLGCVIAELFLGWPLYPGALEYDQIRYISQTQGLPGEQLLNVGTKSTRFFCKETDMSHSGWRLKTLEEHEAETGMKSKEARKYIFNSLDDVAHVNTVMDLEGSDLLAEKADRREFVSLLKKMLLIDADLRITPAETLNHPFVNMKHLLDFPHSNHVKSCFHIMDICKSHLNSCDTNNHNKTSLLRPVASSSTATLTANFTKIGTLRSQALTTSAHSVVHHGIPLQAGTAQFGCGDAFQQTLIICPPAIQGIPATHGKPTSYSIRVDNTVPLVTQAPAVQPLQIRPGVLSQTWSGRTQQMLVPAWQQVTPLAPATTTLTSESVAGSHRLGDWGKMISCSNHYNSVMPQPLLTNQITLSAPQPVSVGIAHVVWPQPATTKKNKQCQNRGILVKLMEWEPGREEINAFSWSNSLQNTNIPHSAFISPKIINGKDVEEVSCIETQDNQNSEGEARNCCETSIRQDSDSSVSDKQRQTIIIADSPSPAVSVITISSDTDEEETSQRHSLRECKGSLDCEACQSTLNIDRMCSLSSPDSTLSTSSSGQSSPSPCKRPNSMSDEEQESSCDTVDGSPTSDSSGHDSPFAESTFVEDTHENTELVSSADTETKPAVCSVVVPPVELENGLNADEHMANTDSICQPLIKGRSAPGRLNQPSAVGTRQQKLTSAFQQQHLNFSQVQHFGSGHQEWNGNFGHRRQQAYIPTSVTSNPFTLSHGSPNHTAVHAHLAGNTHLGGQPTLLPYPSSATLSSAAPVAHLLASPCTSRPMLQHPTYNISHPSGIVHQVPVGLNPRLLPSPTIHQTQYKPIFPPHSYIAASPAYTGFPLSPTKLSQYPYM
In short: (§1)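 Percent activity retained relative to the no-inhibitor reaction is given. Assays used human enzymes, radiolabel filter capture, ATP concentrations not exceeding the respective KM, and a final inhibitor level of 1 µM.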

[2] = molecular target: PKCγ (Homo sapiens, UniProt P05129); conditions: 1 µM inhibitor, read-out: Residual activity, %
In short: as §1

[3] = molecular target: CK2 (Homo sapiens, UniProt P68400); conditions: CK2, 1 µM inhibitor; read-out: Residual activity, %
Sequence of CK2 (P68400 whole entry): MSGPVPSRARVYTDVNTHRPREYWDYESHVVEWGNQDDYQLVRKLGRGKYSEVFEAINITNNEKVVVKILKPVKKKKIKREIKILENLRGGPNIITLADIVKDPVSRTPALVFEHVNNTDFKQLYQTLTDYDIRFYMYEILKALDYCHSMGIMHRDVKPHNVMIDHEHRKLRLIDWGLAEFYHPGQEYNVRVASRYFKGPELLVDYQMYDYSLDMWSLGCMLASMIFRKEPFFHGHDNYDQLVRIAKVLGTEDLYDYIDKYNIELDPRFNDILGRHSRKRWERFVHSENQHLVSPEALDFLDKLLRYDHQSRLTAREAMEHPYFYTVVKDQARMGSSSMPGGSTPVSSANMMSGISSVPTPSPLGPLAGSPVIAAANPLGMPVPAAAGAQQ
In short: as §1

[4] = molecular target: MLK1 (Homo sapiens, UniProt P80192); conditions: MLK1, 1 µM inhibitor; read-out: Residual activity, %
Sequence of MLK1 (P80192 whole entry): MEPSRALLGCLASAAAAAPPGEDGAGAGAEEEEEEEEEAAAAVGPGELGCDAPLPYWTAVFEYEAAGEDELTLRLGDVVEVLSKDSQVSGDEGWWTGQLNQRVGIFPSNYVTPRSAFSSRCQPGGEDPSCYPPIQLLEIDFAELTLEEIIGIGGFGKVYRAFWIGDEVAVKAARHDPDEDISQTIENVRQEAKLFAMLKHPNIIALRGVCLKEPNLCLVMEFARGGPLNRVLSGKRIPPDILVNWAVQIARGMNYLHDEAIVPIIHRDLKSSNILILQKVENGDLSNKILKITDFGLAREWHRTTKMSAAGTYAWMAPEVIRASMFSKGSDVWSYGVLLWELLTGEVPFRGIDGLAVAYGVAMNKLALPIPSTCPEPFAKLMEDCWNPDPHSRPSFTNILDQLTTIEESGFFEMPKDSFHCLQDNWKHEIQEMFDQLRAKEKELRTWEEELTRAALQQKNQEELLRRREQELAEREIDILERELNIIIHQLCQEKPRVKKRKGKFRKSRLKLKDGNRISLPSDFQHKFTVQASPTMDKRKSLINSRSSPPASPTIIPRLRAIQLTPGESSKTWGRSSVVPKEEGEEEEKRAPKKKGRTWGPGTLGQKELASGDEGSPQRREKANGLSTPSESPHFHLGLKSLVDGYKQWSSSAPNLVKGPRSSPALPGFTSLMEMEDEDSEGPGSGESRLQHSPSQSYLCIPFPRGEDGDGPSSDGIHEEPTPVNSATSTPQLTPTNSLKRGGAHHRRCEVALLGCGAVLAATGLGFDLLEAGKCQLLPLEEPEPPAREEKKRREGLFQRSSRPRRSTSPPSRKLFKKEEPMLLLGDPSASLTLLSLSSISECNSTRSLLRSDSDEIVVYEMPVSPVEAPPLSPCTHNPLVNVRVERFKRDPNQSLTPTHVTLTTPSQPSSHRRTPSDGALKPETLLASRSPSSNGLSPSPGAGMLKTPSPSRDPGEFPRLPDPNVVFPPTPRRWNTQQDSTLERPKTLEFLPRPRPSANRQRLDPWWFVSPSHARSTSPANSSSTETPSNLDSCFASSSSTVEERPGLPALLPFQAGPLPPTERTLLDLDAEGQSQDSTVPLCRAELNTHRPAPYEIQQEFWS
In short: as §1

[5] = molecular target: Src (Homo sapiens, UniProt P12931); conditions: 1 µM inhibitor, read-out: Residual activity, %
In short: as §1

[6] = molecular target: TTBK2 (Homo sapiens, UniProt Q6IQ55); conditions: TTBK2, 1 µM inhibitor; read-out: Residual activity, %
In short: as §1

[7] = molecular target: T1, EPH-B4 (Homo sapiens, UniProt P54760); conditions: EPH-B4, 1 µM inhibitor; read-out: Residual activity, %
T1 sequence (P54760 16-987): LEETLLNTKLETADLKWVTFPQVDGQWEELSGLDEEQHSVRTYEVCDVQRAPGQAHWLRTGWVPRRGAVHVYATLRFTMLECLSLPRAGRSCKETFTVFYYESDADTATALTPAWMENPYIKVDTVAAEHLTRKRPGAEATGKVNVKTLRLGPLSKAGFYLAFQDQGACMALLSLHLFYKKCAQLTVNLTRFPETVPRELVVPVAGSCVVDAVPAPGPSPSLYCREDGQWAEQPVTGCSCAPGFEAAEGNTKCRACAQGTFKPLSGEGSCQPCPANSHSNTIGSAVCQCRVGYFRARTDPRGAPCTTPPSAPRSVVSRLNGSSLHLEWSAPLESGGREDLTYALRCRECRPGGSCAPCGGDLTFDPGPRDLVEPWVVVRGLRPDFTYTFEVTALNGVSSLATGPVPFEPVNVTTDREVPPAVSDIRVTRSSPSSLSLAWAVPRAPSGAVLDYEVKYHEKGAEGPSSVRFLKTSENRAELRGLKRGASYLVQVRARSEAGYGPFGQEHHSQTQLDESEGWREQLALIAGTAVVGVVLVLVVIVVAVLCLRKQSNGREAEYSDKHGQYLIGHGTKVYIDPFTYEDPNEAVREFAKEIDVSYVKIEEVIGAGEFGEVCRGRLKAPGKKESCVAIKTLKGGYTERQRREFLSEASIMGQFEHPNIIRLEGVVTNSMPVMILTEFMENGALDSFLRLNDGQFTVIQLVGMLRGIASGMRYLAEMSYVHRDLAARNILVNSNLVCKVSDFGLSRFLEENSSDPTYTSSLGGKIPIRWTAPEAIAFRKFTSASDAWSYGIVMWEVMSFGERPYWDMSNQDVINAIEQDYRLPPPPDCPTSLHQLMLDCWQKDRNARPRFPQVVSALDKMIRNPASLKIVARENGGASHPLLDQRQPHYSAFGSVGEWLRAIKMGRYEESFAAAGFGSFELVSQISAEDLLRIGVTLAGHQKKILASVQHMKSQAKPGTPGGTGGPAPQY
In short: as §1

[8] = molecular target: ABL (Homo sapiens, UniProt P00519); conditions: 1 µM inhibitor, read-out: Residual activity, %
Sequence of ABL (P00519 whole entry): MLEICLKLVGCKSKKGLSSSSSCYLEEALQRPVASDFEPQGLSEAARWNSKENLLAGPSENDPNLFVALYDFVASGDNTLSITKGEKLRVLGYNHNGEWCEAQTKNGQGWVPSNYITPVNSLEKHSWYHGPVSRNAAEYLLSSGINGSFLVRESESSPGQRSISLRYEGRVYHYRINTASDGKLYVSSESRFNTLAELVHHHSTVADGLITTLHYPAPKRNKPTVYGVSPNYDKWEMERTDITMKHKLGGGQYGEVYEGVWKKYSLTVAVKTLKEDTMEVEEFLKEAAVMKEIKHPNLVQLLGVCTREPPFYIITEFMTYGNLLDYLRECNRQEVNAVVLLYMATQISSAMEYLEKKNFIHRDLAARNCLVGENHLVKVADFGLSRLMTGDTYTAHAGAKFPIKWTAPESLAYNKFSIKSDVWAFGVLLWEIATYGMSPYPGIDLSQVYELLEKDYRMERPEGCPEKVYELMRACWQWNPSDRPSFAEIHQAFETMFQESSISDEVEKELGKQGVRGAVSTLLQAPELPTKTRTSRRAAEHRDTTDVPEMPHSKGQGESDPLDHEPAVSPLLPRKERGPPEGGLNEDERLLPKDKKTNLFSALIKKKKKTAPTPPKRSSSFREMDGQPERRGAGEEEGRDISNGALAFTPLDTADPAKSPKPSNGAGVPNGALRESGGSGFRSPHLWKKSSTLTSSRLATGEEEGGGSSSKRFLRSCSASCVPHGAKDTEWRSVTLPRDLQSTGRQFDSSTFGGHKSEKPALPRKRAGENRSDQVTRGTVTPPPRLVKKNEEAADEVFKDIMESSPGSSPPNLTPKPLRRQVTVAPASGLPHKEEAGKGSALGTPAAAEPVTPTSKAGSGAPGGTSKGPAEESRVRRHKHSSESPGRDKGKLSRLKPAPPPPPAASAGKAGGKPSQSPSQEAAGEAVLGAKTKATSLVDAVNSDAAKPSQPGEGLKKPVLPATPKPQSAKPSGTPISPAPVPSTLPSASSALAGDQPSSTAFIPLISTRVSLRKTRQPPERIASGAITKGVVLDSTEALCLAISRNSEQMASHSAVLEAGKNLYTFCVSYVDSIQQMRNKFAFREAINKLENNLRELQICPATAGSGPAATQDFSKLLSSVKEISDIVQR
In short: as §1

[9] = molecular target: T2, EPH-B3 (Homo sapiens, UniProt P54753); conditions: EPH-B3, 1 µM inhibitor; read-out: Residual activity, %
T2 sequence (P54753 34-998): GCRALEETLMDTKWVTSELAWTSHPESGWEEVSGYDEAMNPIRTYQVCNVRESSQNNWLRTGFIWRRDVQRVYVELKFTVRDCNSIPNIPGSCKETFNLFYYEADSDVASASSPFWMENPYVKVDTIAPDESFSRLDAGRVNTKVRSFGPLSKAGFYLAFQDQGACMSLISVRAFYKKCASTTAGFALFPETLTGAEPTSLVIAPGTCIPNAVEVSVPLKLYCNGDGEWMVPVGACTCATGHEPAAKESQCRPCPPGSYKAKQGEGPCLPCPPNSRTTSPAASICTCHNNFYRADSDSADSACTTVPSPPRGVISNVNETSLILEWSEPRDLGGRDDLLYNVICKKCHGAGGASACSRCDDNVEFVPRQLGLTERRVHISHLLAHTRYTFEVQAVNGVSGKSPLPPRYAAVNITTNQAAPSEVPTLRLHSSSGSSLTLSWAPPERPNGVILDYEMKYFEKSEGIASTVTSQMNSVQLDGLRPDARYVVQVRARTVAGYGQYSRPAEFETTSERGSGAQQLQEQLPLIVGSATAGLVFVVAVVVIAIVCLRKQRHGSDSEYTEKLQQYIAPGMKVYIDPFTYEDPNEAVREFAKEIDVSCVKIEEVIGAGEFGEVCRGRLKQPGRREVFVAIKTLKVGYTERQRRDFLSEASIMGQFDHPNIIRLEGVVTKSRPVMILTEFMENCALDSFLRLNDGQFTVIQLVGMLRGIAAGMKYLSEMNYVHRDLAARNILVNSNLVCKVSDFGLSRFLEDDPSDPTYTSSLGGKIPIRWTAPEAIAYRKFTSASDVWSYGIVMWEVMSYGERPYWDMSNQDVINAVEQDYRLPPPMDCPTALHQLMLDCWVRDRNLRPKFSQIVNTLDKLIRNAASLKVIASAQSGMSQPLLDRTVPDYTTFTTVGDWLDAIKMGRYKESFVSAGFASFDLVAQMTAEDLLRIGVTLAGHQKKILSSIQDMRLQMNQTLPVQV
In short: as §1

[10] = molecular target: CK1γ2 (Homo sapiens, UniProt P78368); conditions: CK1γ2, 1 µM inhibitor; read-out: Residual activity, %
Sequence of CK1γ2 (P78368 whole entry): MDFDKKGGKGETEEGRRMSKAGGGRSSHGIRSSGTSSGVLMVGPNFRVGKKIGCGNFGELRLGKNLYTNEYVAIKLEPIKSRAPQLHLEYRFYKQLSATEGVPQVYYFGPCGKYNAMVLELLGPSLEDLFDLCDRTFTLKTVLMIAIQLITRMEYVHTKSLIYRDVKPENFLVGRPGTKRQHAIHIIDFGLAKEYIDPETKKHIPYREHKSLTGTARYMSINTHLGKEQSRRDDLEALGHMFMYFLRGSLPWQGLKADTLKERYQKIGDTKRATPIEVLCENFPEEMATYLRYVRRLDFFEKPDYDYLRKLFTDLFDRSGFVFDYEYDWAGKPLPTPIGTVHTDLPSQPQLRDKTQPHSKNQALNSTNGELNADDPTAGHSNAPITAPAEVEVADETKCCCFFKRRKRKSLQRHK
In short: as §1

[11] = molecular target: WNK1 (Homo sapiens, UniProt Q9H4A3); conditions: WNK1, 1 µM inhibitor; read-out: Residual activity, %
In short: as §1

[12] = molecular target: MELK (Homo sapiens, UniProt Q14680); conditions: 1 µM inhibitor, read-out: Residual activity, %
In short: as §1

## N=C(N)NCCC[C@@H](NC(=O)CNC(=O)[C@@H](CCCNC(=N)N)NC(=O)[C@@H](CCCNC(=N)N)NC(=O)Cn1cc(CNCc2nc3c(sc4ccc(Br)cc43)c(=O)[nH]2)nn1)C(=O)N[C@H](CCCCN)C(N)=O [Compound 3, BBTP-Amt-(D-Arg)2-Gly-D-Arg-D-Lys-NH2]
[1]
  remaining activity at 1 µM: 57 ± 7%
[2]
  remaining activity at 1 µM: 105 ± 9%
[3]
  remaining activity at 1 µM: 57 ± 7%
[4]
  remaining activity at 1 µM: 101 ± 9%
[5]
  remaining activity at 1 µM: 119 ± 1%
[6]
  remaining activity at 1 µM: 105 ± 15%
[7]
  remaining activity at 1 µM: 98 ± 13%
[8]
  remaining activity at 1 µM: 91 ± 12%
[9]
  remaining activity at 1 µM: 79 ± 3%
[10]
  remaining activity at 1 µM: 88 ± 1%
[11]
  remaining activity at 1 µM: 104 ± 6%
[12]
  remaining activity at 1 µM: 73 ± 11%

## N=C(N)NCCC[C@@H](NC(=O)CCCCCNCc1nc2c(sc3cc(Br)cnc32)c(=O)[nH]1)C(=O)N[C@H](CCCNC(=N)N)C(=O)N[C@H](CCCNC(=N)N)C(=O)N[C@H](CCCNC(=N)N)C(=O)N[C@H](CCCNC(=N)N)C(=O)N[C@H](CCCNC(=N)N)C(=O)N[C@H](CCCCN)C(N)=O [ARC-3126, BPTP-Ahx-(D-Arg)6-D-Lys-NH2] (X3-[dR][dR][dR][dR][dR][dR][dK]-NH2)
[1]
  remaining activity at 1 µM: 93 ± 2%
[2]
  remaining activity at 1 µM: 98 ± 8%
[3]
  remaining activity at 1 µM: 8 ± 3%
[4]
  remaining activity at 1 µM: 122 ± 21%
[5]
  remaining activity at 1 µM: 103 ± 2%
[6]
  remaining activity at 1 µM: 77 ± 2%
[7]
  remaining activity at 1 µM: 101 ± 10%
[8]
  remaining activity at 1 µM: 116 ± 5%
[9]
  remaining activity at 1 µM: 94 ± 10%
[10]
  remaining activity at 1 µM: 66 ± 10%
[11]
  remaining activity at 1 µM: 107 ± 34%
[12]
  remaining activity at 1 µM: 79 ± 1%

## N=C(N)NCCC[C@@H](NC(=O)CCCCCNC(=O)Cn1cnc2c(I)c(I)c(I)c(I)c21)C(=O)N[C@H](CCCNC(=N)N)C(=O)N[C@H](CCCNC(=N)N)C(=O)N[C@H](CCCNC(=N)N)C(=O)N[C@H](CCCNC(=N)N)C(=O)N[C@H](CCCNC(=N)N)C(=O)N[C@H](CCCCN)C(N)=O [ARC-3125, TIBI-CH2-C(=O)-Ahx-(D-Arg)6-D-Lys-NH2]
[1]
  remaining activity at 1 µM: 21%
[2]
  remaining activity at 1 µM: 86 ± 9%
[3]
  remaining activity at 1 µM: 30 ± 2%
[4]
  remaining activity at 1 µM: 100 ± 8%
[5]
  remaining activity at 1 µM: 153 ± 22%
[6]
  remaining activity at 1 µM: 101 ± 24%
[7]
  remaining activity at 1 µM: 119 ± 7%
[8]
  remaining activity at 1 µM: 106%
[9]
  remaining activity at 1 µM: 104 ± 3%
[10]
  remaining activity at 1 µM: 45 ± 5%
[11]
  remaining activity at 1 µM: 105 ± 33%
[12]
  remaining activity at 1 µM: 34 ± 4%

## N=C(N)NCCC[C@@H](NC(=O)CNC(=O)[C@@H](CCCNC(=N)N)NC(=O)[C@@H](CCCNC(=N)N)NC(=O)CCCCCCCNCc1nc2c(sc3cc(Br)cnc32)c(=O)[nH]1)C(=O)N[C@H](CCCCN)C(N)=O [Compound 1, BPTP-Aoc-(D-Arg)2-Gly-D-Arg-D-Lys-NH2]
[1]
  remaining activity at 1 µM: 116 ± 15%
[2]
  remaining activity at 1 µM: 99 ± 11%
[3]
  remaining activity at 1 µM: 77 ± 9%
[4]
  remaining activity at 1 µM: 112 ± 13%
[5]
  remaining activity at 1 µM: 97 ± 3%
[6]
  remaining activity at 1 µM: 109 ± 6%
[7]
  remaining activity at 1 µM: 104 ± 2%
[8]
  remaining activity at 1 µM: 94 ± 8%
[9]
  remaining activity at 1 µM: 107 ± 26%
[10]
  remaining activity at 1 µM: 117 ± 3%
[11]
  remaining activity at 1 µM: 96 ± 4%
[12]
  remaining activity at 1 µM: 86 ± 5%

## N=C(N)NCCC[C@@H](NC(=O)CNC(=O)[C@@H](CCCNC(=N)N)NC(=O)[C@@H](CCCNC(=N)N)NC(=O)CCCCCCCNCc1nc2c(sc3ccc(Br)cc32)c(=O)[nH]1)C(=O)N[C@H](CCCCN)C(N)=O [Compound 2, BBTP-Aoc-(D-Arg)2-Gly-D-Arg-D-Lys-NH2]
[1]
  remaining activity at 1 µM: 72 ± 12%
[2]
  remaining activity at 1 µM: 97 ± 3%
[3]
  remaining activity at 1 µM: 63 ± 12%
[4]
  remaining activity at 1 µM: 98 ± 8%
[5]
  remaining activity at 1 µM: 110 ± 12%
[6]
  remaining activity at 1 µM: 125 ± 12%
[7]
  remaining activity at 1 µM: 118 ± 11%
[8]
  remaining activity at 1 µM: 89 ± 5%
[9]
  remaining activity at 1 µM: 106 ± 2%
[10]
  remaining activity at 1 µM: 116 ± 10%
[11]
  remaining activity at 1 µM: 93 ± 1%
[12]
  remaining activity at 1 µM: 75 ± 9%
